Measured values: US20170165339A1

The binders below were run against HLA-A*24 (human) (assay: UV peptide-exchange ELISA, yield grade).

First: VFTSTARAF [… (SEQ ID NO: 183)]
Second: RFHPTPLLL [… (SEQ ID NO: 193)]
The peptide exchange yield of the first is lower: 50 to 75% for the first, greater than 75% for the second.

TYLRDQHFL [… (SEQ ID NO: 187)] and MYDSYWRQF [… (SEQ ID NO: 179)] cannot be ordered by peptide exchange yield: greater than 75% for the first, greater than 75% for the second.

Compared with FFPPTRQMGLLF [… (SEQ ID NO: 217)], LYLDKATLI [… (SEQ ID NO: 198)] is lower in peptide exchange yield: greater than 75% for the first, 50 to 75% for the second.

IYQLDTASI [… (SEQ ID NO: 182)] and IFIEVFSHF [… (SEQ ID NO: 178)] fall in the same range of peptide exchange yield: 50 to 75% for the first, 50 to 75% for the second.

First: SYALLTYMI [… (SEQ ID NO: 192)]
Second: VHIPEVYLI [… (SEQ ID NO: 205)]
The peptide exchange yield of the first is higher: greater than 75% for the first, 50 to 75% for the second.

First: LYLDIINLF [… (SEQ ID NO: 181)]
Second: RYFKGLVF [RYFKGLVF (SEQ ID NO: 188)]
The peptide exchange yield of the first is higher: greater than 75% for the first, 50 to 75% for the second.

First: VFKASKITF [… (SEQ ID NO: 191)]
Second: YFDKVVTL [YFDKVVTL (SEQ ID NO: 215)]
The peptide exchange yield of the first is higher: 50 to 75% for the first, 20 to 49% for the second.

FYSRLLQKF [… (SEQ ID NO: 203)] and EYQENFLSF [… (SEQ ID NO: 206)] fall in the same range of peptide exchange yield: 50 to 75% for the first, 50 to 75% for the second.

First: LYLKLWNLI [… (SEQ ID NO: 214)]
Second: WYVNGVNYF [… (SEQ ID NO: 189)]
The peptide exchange yield of the first is higher: 50 to 75% for the first, 20 to 49% for the second.

First: EFGSLHLEFL [… (SEQ ID NO: 194)]
Second: IYKVGAPTI [… (SEQ ID NO: 185)]
The peptide exchange yield of the first is lower: less than 20% for the first, 50 to 75% for the second.

TYTTVPRVAF [… (SEQ ID NO: 172)] and YYLEVGKTLI [… (SEQ ID NO: 211)] cannot be ordered by peptide exchange yield: greater than 75% for the first, greater than 75% for the second.

First: QYSSVFKSL [… (SEQ ID NO: 216)]
Second: IYDDSFIRPVTF [… (SEQ ID NO: 180)]
The peptide exchange yield of the first is higher: greater than 75% for the first, 50 to 75% for the second.

Compared with VYPWLGALL [… (SEQ ID NO: 177)], GFFIFNERF [… (SEQ ID NO: 190)] is lower in peptide exchange yield: greater than 75% for the first, 50 to 75% for the second.

First: VFQNFPLLF [… (SEQ ID NO: 184)]
Second: TYTQDFNKF [… (SEQ ID NO: 208)]
The peptide exchange yield of the first is higher: greater than 75% for the first, 50 to 75% for the second.

IFPQFLYQF [… (SEQ ID NO: 186)] and IYTMIYRNL [… (SEQ ID NO: 210)] cannot be ordered by peptide exchange yield: greater than 75% for the first, greater than 75% for the second.
